Values of other authors in US9060935B2, “Pharmaceutical lipid compositions” (CAMURUS AB, priority 2005, dated 2015).

Legend:
[1] = native GLP-1
[2] = room temperature

Compound	plasma half-life [1]	equilibrium water solubility [2]
GLP-1: native glucoregulatory hormone, 37-amino acid peptide with a MW of 4.2 KDa	below 2 minutes	–
CCCCCCCC/C=C\CCCCCCCC(=O)OCC(O)CO (centres unmarked) [GMO, glycerol monooleate]	–	~10^−7 M
